In patent publication US9988424 (DUKE UNIVERSITY, dated 2018):

Legend:
[1] = molecular target: T1, gp70 B.HXB2/BALV1V2/N156QN160Q (murine leukemia virus; HIV-1); assay: ELISA, mAb 0.001-100 ug/ml on coated V1V2 scaffold, OD450
T1 chain: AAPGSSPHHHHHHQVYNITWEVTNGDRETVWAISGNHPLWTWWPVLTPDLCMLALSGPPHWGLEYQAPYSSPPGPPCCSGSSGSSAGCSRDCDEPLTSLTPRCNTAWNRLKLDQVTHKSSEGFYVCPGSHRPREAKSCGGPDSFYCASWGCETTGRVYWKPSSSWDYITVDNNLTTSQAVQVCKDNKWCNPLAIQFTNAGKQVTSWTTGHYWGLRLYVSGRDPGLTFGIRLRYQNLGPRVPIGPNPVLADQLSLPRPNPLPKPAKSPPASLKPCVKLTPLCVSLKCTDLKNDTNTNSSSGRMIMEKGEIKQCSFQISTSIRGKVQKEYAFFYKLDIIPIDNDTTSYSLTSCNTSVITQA

[2] = molecular target: T2, J08 A.92RW020V1V2/N156QN160Q (HIV-1); assay: as above
T2 construct: also called J08 A.92RW020VV1V2/N156QN160Q

J08 B.HXB2/BALV1V2 = molecular target: T3, J08 B.HXB2/BALV1V2 (HIV-1); assay: as above
T3 construct: also called J08 B.HXB/BAL V1V2
T3 chain: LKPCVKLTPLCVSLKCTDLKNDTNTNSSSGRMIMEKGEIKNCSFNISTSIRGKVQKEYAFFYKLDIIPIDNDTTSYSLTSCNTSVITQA

gp70 B.HXB2/BALV1V2 = molecular target: T4, gp70 B.HXB2/BALV1V2 (murine leukemia virus; HIV-1); assay: as above
T4 chain: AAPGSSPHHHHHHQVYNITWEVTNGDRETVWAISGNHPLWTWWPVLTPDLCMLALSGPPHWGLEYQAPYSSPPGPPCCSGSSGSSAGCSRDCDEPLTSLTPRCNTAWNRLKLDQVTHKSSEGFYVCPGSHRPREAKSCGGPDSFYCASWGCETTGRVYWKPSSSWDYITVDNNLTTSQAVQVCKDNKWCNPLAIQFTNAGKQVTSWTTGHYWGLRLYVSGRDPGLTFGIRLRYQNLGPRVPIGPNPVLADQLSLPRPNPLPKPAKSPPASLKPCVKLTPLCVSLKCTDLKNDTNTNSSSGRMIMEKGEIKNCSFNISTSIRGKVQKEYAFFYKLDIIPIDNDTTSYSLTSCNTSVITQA

AE.A244 gp120 delta 11 = AE.A244 gp120 delta 11 (HIV-1)
B.63521_V1V2 Tags = assay: ELISA OD405nm, bar chart, antibody concentration not given
B.62357 140C = molecular target: T5, B.62357 140C; assay: as above
T5 construct: also called B.62357 gp140C

A.9004SS V1V2 Tags = molecular target: T6, A.9004SS V1V2 Tags; assay: as above
T6 V1V2 tags construct: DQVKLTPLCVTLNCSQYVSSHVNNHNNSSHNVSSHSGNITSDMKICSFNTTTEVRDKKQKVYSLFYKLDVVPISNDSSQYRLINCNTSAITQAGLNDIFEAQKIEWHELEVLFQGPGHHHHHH

G.con 140CF = molecular target: T7, G.con 140CF; assay: as above
T7 construct: also called G.con gp140CF; G.con.env03 gp140CF

B.040 gp140C = assay: as above
D.9009SA V1V2 Tags = assay: as above
Con 6 120 = molecular target: T8, Con 6 120; assay: as above
T8 construct: also called Con 6 gp120

A.Q23 V1V2 tags = A.Q23 V1V2 tags (HIV-1); assay: as above
B.9021 gp140C = B.9021 gp140C (HIV-1); assay: as above
AE.con env03 40CF = molecular target: T9, AE.con env03 40CF; assay: as above
T9 construct: also called AE.con gp140CF; AE.con.env03 gp140CF

B.62357 gp140C = molecular target: T10, B.62357 gp140C; assay: ELISA, OD405 at 10 ug/ml
T10 construct: also called B.62357 140C

Con 6 gp120 = assay: ELISA, OD405 at 10 ug/ml
AE.A244 gD+ gp120 N160K = molecular target: T11, AE.A244 gD+ gp120 N160K (HIV-1); assay: ELISA
T11 construct: domain: gp120

gp70 B.CaseA2 V1/V2 = molecular target: T12, gp70 B.CaseA2 V1/V2 (HIV-1 V1V2 on murine leukemia virus gp70); assay: ELISA
T12 construct: also called B.gp70CaseA2 V1/V2; gp70 B.CaseAV1V2
T12 chain: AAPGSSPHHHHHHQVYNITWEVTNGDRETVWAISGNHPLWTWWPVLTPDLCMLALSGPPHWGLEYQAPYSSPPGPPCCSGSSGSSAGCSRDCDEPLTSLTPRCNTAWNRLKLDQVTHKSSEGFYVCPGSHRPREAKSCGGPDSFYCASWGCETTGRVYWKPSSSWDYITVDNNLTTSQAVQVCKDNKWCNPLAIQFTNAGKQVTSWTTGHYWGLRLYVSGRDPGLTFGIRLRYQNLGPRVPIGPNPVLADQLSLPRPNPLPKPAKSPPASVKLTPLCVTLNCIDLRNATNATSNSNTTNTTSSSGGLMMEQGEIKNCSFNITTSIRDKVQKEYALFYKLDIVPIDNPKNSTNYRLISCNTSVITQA

AE.A244 V1V2 Tags = AE.A244 V1V2 Tags (HIV-1)

B1: CH59 (antibody, V domains shown)
VH: EVQLVESGGGLVQPGRSLRLSCAASGFTFDDGAMHWVRQAPGKGLEWVSGISWNSNIIAYADSVKGRFTISRDNAKNSLYLEMNSLRVEDTALYYCAKDSPRGELPLNYWGQGTLVTVSS
VL: SYELTQPPSVSVSPGQTARITCSGDALPKNYAYWYQQKSGQAPVLVIYEDSKRPSGIPERFSGSSSGTMATLTISGAQVEDEADYYCYSTDSSGNHRVFGGGTKLTVL
notes: also called mAb CH59
[1]
  binding result: no binding (tested: 100 ug/ml)
[2]
  binding result: no binding (tested: 100 ug/ml)
J08 B.HXB2/BALV1V2
  binding result: no binding (tested: 100 ug/ml)
gp70 B.HXB2/BALV1V2
  binding result: no binding (tested: 100 ug/ml)
AE.A244 gp120 delta 11
  koff: 0.00013 s⁻¹
  kon: 58300 M⁻¹ s⁻¹
B.63521_V1V2 Tags
  binding result: no binding (tested: not given)
B.62357 140C
  binding result: no binding (tested: not given)
A.9004SS V1V2 Tags
  binding result: binds
G.con 140CF
  binding result: no binding (tested: not given)
B.040 gp140C
  binding result: no binding (tested: not given)
D.9009SA V1V2 Tags
  binding result: binds
Con 6 120
  binding result: no binding (tested: not given)
A.Q23 V1V2 tags
  binding result: no binding (tested: not given)
B.9021 gp140C
  binding result: no binding (tested: not given)
AE.con env03 40CF
  binding result: binds
B.62357 gp140C
  binding result: no binding (tested: 10 ug/ml)
Con 6 gp120
  binding result: no binding (tested: 10 ug/ml)
AE.A244 gD+ gp120 N160K
  EC50: 0.03 nM

B2: 697D (antibody, V domains shown)
VH: QVQLVQSGAEVKKPGSSVKVSCKASGGNFNTYTISWVRQAPGQGLEWMGRIIPIFGIVNPAQKFPGRVTINVDKSTNTAYMELSSLRSEDTAVYYCATSGVGLHFGYFDYWGQGTQVTVSS
VL: QSVLTQPPSVSGAPGQRVTISCTGSSSNIGAHYDVHWYQQLPGTAPKLLIYGNSNRPSGVPDRFSGSKSGTSASLAITGLQAEDEADYYCQSYDSSLSGYVFGTGTKVTVL
notes: also called mAb 697D; V2 conformational mAb 697D
gp70 B.CaseA2 V1/V2
  EC50: 0.04 µg/mL
AE.A244 V1V2 Tags
  Kd: 117 nM
  koff: 0.0024 s⁻¹
  kon: 20000 M⁻¹ s⁻¹
